Tests used:
CD38 [1] = target: T1, CD38 (UniProt P28907 43-300, limits assumed); experiment: SPR; YMS9d diluted to 1 mg/ml from the 20 mg/ml solution
T1 construct: also called cyclic ADP ribose hydrolase

CD38 [2] = target: T1, CD38; experiment: SPR; YMS9d diluted to 1 mg/ml from the 10 mg/ml solution

B1: YMS9d (bispecific antibody)
chain: QVQLQESGPGLVKPSETLSLTCTVSGFSLTSYGVHWVRQPPGKGLEWIGVMWRGGSTDYNAAFKSRVTISKDNSKNQVSLKLSSVTAADTAVYYCAKSMITTGFVMDSWGQGTLVTVSSGGGGSGGGGSGGGGSGGGGSGGGGSGGGGSDIQLTQSPSSLSASVGDRVTITCKASEDIYNRLTWYQQKPGKAPKLLISGATSLETGVPSRFSGSGSGKDYTFTISSLQPEDFATYYCQQYWSNPYTFGQGTKLEIKGGGGSGGGGSGGGGSGGGGSHVQLVESGGGLVQPGGSLRLSCAASGFSLTDYGVHWVRQAPGKGLEWLGVIWSGGGTAYNTALISRFTISRDNSKNTLYLQMNSLRAEDTAVYYCARRGSYPYNYFDAWGQGTLVTVSSGGGGSGGGGSGGGGSGGGGSGGGGSGGGGSQAVVTQEPSLTVSPGGTVTLTCGSSTGAVTASNYANWVQQKPGQAPRGLIGGHNNRPPGVPARFSGSLLGGKAALTLLGAQPEDEAEYYCALWYSDHWVIGGGTKLTVLGTPLGDTTHTSGKPLDGEYFTLQIRGRERFEMFRELNEALELKDAQAGKEPGGSGGAP
modifications: Self-assembles into tetramers through the p53 SADA domain; labelled with 125I in Example 8.
notes: also called CD38-SADA construct without disulfide bonds; CD38-SADA
Kd (CD38 [1]): 8.1 nM | koff (CD38 [1]): 0.0011 s⁻¹ | kon (CD38 [1]): 130000 M⁻¹ s⁻¹ | Kd (CD38 [2]): 7.5 nM | koff (CD38 [2]): 0.0011 s⁻¹ | kon (CD38 [2]): 140000 M⁻¹ s⁻¹

From patent US20250051478A1 (Y MABS THERAPEUTICS, published 2025)
